Source: patent publication US20070059309A1 (Genentech, published 2007)

What was measured:
Assay in all cases: cell-based or functional assay
recombinant human IFN-α4 = recombinant human IFN-α4 (human, UniProt P05014 24-189)
recombinant human IFN-α5 [1] = target: T1, recombinant human IFN-α5 (human, UniProt P01569 24-189, limits assumed)
recombinant human IFN-α5 [2] = target: T1, recombinant human IFN-α5; remark: listed apart in the source
recombinant human IFN-α1 = recombinant human IFN-α1 (human)
Sequence of recombinant human IFN-α1 (human) (P01562 24-189): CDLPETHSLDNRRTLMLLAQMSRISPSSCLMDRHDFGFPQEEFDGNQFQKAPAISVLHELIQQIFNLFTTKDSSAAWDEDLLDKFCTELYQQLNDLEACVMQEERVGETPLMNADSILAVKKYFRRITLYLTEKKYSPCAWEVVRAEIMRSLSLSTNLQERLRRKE

T1 sequence (P01569 24-189 limits assumed): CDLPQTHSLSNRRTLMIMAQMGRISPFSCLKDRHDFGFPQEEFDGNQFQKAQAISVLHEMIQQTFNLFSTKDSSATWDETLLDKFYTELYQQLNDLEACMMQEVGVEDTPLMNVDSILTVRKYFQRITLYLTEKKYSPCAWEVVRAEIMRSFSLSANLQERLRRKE
Sequence of recombinant human IFN-α4 (P05014 24-189 limits assumed): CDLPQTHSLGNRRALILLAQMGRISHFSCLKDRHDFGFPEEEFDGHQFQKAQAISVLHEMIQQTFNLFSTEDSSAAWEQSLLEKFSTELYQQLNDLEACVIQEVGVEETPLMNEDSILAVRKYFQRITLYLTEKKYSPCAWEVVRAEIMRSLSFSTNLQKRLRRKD

B1: murine anti-human IFN-α monoclonal antibody 9F3 (antibody, IgG2, V domains shown)
VL: DIVLTQSPASLAVSLGQRATISCRASQSVSTSSYSYMHWYQQKPGQPPKVLISYASNLESGVPARFSGSGSGTDFTLNIHPVEEGDTATYFCQHSWGIPRTFGAGTKLELRR
V domain: EVQLQQSGPELVKPGASVKISCKTSGYTFTEYIIHWVKQGHGRSLEWIGSINPDYDITNYNQRFKGKATLTLDKSSRTAYLELRSLTSEDSAVYYCASWISDFFDYWGQGTTLMVSA
EC50 (read off the curve); neutralization of anti-viral activity, EMC virus / A549 cells (recombinant human IFN-α4): ~1 mg/L
EC50 (read off the curve); neutralization of anti-viral activity, EMC virus / A549 cells (recombinant human IFN-α5 [1]): ~1 mg/L
EC50 (read off the curve); neutralization of anti-viral activity, EMC virus / A549 cells [left panel] (recombinant human IFN-α5 [2]): ~0.2 mg/L

B2: chimeric protein CH8-2 (antibody, V domains shown)
VL: DIVLTQSPASLAVSLGQRATISCRASQSVSTSSYSYMHWYQQKPGQPPKVLISYASNLESGVPARFSGSGSGTDFTLNIHPVEEGDTATYFCQHSWGIPRTFGAGTKLELRR
V domain: EVQLQQSGPELVKPGASVKISCKTSGYTFTEYIIHWVKQGHGRSLEWIGSINPDYDITNYNQRFKGKATLTLDKSSRTAYLELRSLTSEDSAVYYCASWISDFFDYWGQGTTLMVSA
EC50 (read off the curve); neutralization of anti-viral activity, EMC virus / A549 cells [right panel] (recombinant human IFN-α1): ~2 mg/L
